Measurements: article PMC4167758

Experiments:
[1] = target: SelK U92S (Homo sapiens) (UniProt Q9Y6D0); assay: SDS-PAGE at high protein concentration
[2] = target: SelK U92C (Homo sapiens) (UniProt Q9Y6D0); assay: electrospray ionization mass spectrometry
[3] = target: SelK U92C (Homo sapiens) (UniProt Q9Y6D0); assay: redox titration with gel shift on non-reducing SDS-PAGE
[4] = target: SelK U92C (Homo sapiens) (UniProt Q9Y6D0); assay: SDS-PAGE under non-reducing conditions

stoichiometry N [1] | stoichiometry N [2] | stoichiometry N [3] | stoichiometry N [4] | Substance
2 |  |  |  | SelK U92S (from UniProt Q9Y6D0 2-94) (natural protein)
 | 2 | 2 | 2 | SelK U92C (from UniProt Q9Y6D0 2-94) (natural protein)
